{"source": "the supplement of paper PMC9112550", "about": "“Optimization of the antimicrobial peptide Bac7 by deep mutational scanning” (BMC Biology, 2022);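 also: peptides expressed intracellularly from a pBAD plasmid library in pooled LB shake-flask culture, induced with 0.3% L-arabinose, DNA abundance read by NGS, three biological replicates, DESeq2 with apeglm shrinkage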"}
{"tested_on": "Escherichia coli TOP10", "assay": "shrunken log2 fold change of peptide-encoding DNA abundance (4.5 h post-induction vs induction); higher = less antimicrobial activity (less host growth inhibition)", "conditions": "time post-induction: 4.5 h; library: site-saturation at positions 5, 18, 19, 20"}
{"sequence": "RRIRRRPPRLPRPRPRPQFSPRP", "shrunken log2 fold change": -0.326}
{"sequence": "RRIRNRPPRLPRPRPRPFVAPRP", "shrunken log2 fold change": -0.41}
{"sequence": "RRIRSRPPRLPRPRPRPSPLPRP", "shrunken log2 fold change": -0.324}
{"sequence": "RRIRYRPPRLPRPRPRPAGRPRP", "shrunken log2 fold change": 0.104}
{"sequence": "RRIRKRPPRLPRPRPRPPGQPRP", "shrunken log2 fold change": 1.25}
{"sequence": "RRIRMRPPRLPRPRPRPHCGPRP", "shrunken log2 fold change": -0.033}
{"sequence": "RRIRDRPPRLPRPRPRPCKCPRP", "shrunken log2 fold change": -0.147}
{"sequence": "RRIRWRPPRLPRPRPRPHPNPRP", "shrunken log2 fold change": -0.0793}
{"sequence": "RRIRSRPPRLPRPRPRPFGEPRP", "shrunken log2 fold change": -0.066}
{"sequence": "RRIRLRPPRLPRPRPRPCKMPRP", "shrunken log2 fold change": -0.503}
{"sequence": "RRIRKRPPRLPRPRPRPAKFPRP", "shrunken log2 fold change": 0.602}
{"sequence": "RRIRQRPPRLPRPRPRPPCVPRP", "shrunken log2 fold change": 0.214}
{"sequence": "RRIRLRPPRLPRPRPRPHKYPRP", "shrunken log2 fold change": -0.559}
{"sequence": "RRIRIRPPRLPRPRPRPLVNPRP", "shrunken log2 fold change": -0.814}
{"sequence": "RRIRRRPPRLPRPRPRPMNVPRP", "shrunken log2 fold change": -0.156}
{"sequence": "RRIRSRPPRLPRPRPRPAEYPRP", "shrunken log2 fold change": -0.0544}
{"sequence": "RRIRHRPPRLPRPRPRPHEYPRP", "shrunken log2 fold change": -0.293}
{"sequence": "RRIRTRPPRLPRPRPRPECWPRP", "shrunken log2 fold change": 0.53}
{"sequence": "RRIRWRPPRLPRPRPRPLSFPRP", "shrunken log2 fold change": -0.0327}
{"sequence": "RRIRERPPRLPRPRPRPAFGPRP", "shrunken log2 fold change": 0.353}
{"sequence": "RRIRRRPPRLPRPRPRPECEPRP", "shrunken log2 fold change": 0.323}
{"sequence": "RRIRDRPPRLPRPRPRPPEKPRP", "shrunken log2 fold change": 0.106}
{"sequence": "RRIRRRPPRLPRPRPRPGHFPRP", "shrunken log2 fold change": -0.204}
{"sequence": "RRIRVRPPRLPRPRPRPNWWPRP", "shrunken log2 fold change": 0.175}
{"sequence": "RRIRFRPPRLPRPRPRPLTLPRP", "shrunken log2 fold change": -0.337}
{"sequence": "RRIRKRPPRLPRPRPRPRSLPRP", "shrunken log2 fold change": -0.00364}
{"sequence": "RRIRPRPPRLPRPRPRPFYTPRP", "shrunken log2 fold change": -0.429}
{"sequence": "RRIRWRPPRLPRPRPRPCQQPRP", "shrunken log2 fold change": -0.219}
{"sequence": "RRIRLRPPRLPRPRPRPVFDPRP", "shrunken log2 fold change": -0.251}
{"sequence": "RRIRLRPPRLPRPRPRPVKHPRP", "shrunken log2 fold change": -0.131}
{"sequence": "RRIRIRPPRLPRPRPRPPYNPRP", "shrunken log2 fold change": -0.854}
{"sequence": "RRIRKRPPRLPRPRPRPCKFPRP", "shrunken log2 fold change": 0.142}
{"sequence": "RRIRNRPPRLPRPRPRPLVFPRP", "shrunken log2 fold change": -0.147}
{"sequence": "RRIRKRPPRLPRPRPRPNRYPRP", "shrunken log2 fold change": 0.0446}
{"sequence": "RRIRSRPPRLPRPRPRPEQLPRP", "shrunken log2 fold change": -0.0808}
{"sequence": "RRIRCRPPRLPRPRPRPKLGPRP", "shrunken log2 fold change": 0.0989}
{"sequence": "RRIRMRPPRLPRPRPRPMMKPRP", "shrunken log2 fold change": 0.0962}
{"sequence": "RRIRNRPPRLPRPRPRPHKYPRP", "shrunken log2 fold change": -1.52}
{"sequence": "RRIRARPPRLPRPRPRPTYGPRP", "shrunken log2 fold change": -0.0482}
{"sequence": "RRIRVRPPRLPRPRPRPIKGPRP", "shrunken log2 fold change": -0.155}
{"sequence": "RRIRVRPPRLPRPRPRPWMGPRP", "shrunken log2 fold change": -0.339}
{"sequence": "RRIRKRPPRLPRPRPRPMSVPRP", "shrunken log2 fold change": -0.39}
{"sequence": "RRIRTRPPRLPRPRPRPQESPRP", "shrunken log2 fold change": -0.0142}
{"sequence": "RRIRNRPPRLPRPRPRPMNIPRP", "shrunken log2 fold change": -0.24}
{"sequence": "RRIRLRPPRLPRPRPRPRSIPRP", "shrunken log2 fold change": -0.247}
{"sequence": "RRIRFRPPRLPRPRPRPSHTPRP", "shrunken log2 fold change": -0.035}
{"sequence": "RRIRYRPPRLPRPRPRPFNVPRP", "shrunken log2 fold change": 0.0019}
{"sequence": "RRIRNRPPRLPRPRPRPLSGPRP", "shrunken log2 fold change": 0.0992}
{"sequence": "RRIRARPPRLPRPRPRPSMWPRP", "shrunken log2 fold change": 0.45}
{"sequence": "RRIRDRPPRLPRPRPRPRQDPRP", "shrunken log2 fold change": 0.367}
{"sequence": "RRIRYRPPRLPRPRPRPRQQPRP", "shrunken log2 fold change": 0.226}
{"sequence": "RRIRPRPPRLPRPRPRPNVHPRP", "shrunken log2 fold change": -0.44}
{"sequence": "RRIRPRPPRLPRPRPRPCYNPRP", "shrunken log2 fold change": -0.868}
{"sequence": "RRIRSRPPRLPRPRPRPPNRPRP", "shrunken log2 fold change": 0.238}
{"sequence": "RRIRMRPPRLPRPRPRPHKYPRP", "shrunken log2 fold change": -0.152}
{"sequence": "RRIRDRPPRLPRPRPRPPGMPRP", "shrunken log2 fold change": 0.201}
{"sequence": "RRIRARPPRLPRPRPRPHLVPRP", "shrunken log2 fold change": 0.0104}
{"sequence": "RRIRDRPPRLPRPRPRPACNPRP", "shrunken log2 fold change": 0.0741}
{"sequence": "RRIRARPPRLPRPRPRPGVCPRP", "shrunken log2 fold change": 0.571}
{"sequence": "RRIRKRPPRLPRPRPRPAFEPRP", "shrunken log2 fold change": 0.158}
